# Data as given in article PMC7909569, “Unique Cellular and Biochemical Features of Human Mitochondrial Peroxiredoxin 3 Establish the Molecular Basis for Its Specific Reaction with Thiostrepton” (Antioxidants, 2021).
# Legend:
# [1] = target: the molecule itself; assay: SEC-MALS; reduced samples (10 mM DTT), 2 mg/mL (90–93 µM) PRX, 50 mM HEPES, 100 mM NaCl, pH 7.0, 7.5 or 8.0 (PRX3 only pH 7.5 and 8.0); TSK Gel 4000 SW column run without reducing agents; (do)decamer against dimers
# [2] = target: the molecule itself; assay: SEC-MALS; engineered dimers, reduced (10 mM DTT) or oxidized (1.2 equivalents H2O2), 2 mg/mL, all pH values tested (7.0, 7.5, 8.0)
# [3] = target: the molecule itself; assay: SEC-MALS; oxidized samples (1.2 equivalents of H2O2), 2 mg/mL PRX, 50 mM HEPES, 100 mM NaCl, pH 8.0; (do)decamer against dimers
# [4] = target: the molecule itself; assay: SEC-MALS; peroxide titration: pre-reduced PRX2 (100 µM), pH 7.4, 100 µM H2O2 (1 equivalence, fully oxidized)
# [5] = target: the molecule itself; assay: SEC-MALS; peroxide titration: pre-reduced PRX3 (93 µM), DTT removed, pH 8.0, 0 H2O2 (fully reduced)
# [6] = target: the molecule itself; assay: SEC-MALS; oxidized samples (1.2 equivalents of H2O2), 2 mg/mL PRX, 50 mM HEPES, 100 mM NaCl, pH 7.5; (do)decamer against dimers
protein,measurement,setting,value
"Wild-type human PRX1 (enzyme, UniProt Q06830 1-199, looked up, peroxiredoxin 1 (PRX1), human, wild type, untagged, no extra residues; Tested reduced (DTT) and oxidised to the disulfide (H2O2); also called peroxiredoxin 1; WT PRX1) MSSGNAKIGHPAPNFKATAVMPDGQFKDISLSDYKGKYVVFFFYPLDFTFVCPTEIIAFSDRAEEFKKLNCQVIGASVDSHFCHLAWVNTPKKQGGLGPMNIPLVSDPKRTIAQDYGVLKADEGISFRGLFIIDDKGILRQITVNDLPVGRSVDETLRLVQAFQFTDKHGEVCPAGWKPGSDTIKPDVQKSKEYFSKQK",stoichiometry N,[1],10
"PRX1 C83E (enzyme, human, UniProt Q06830 1-199, looked up, peroxiredoxin 1 (PRX1), human, with C83E in the dimer-dimer interface, untagged; also called engineered dimer of PRX1; dimeric version of PRX1) MSSGNAKIGHPAPNFKATAVMPDGQFKDISLSDYKGKYVVFFFYPLDFTFVCPTEIIAFSDRAEEFKKLNCQVIGASVDSHFEHLAWVNTPKKQGGLGPMNIPLVSDPKRTIAQDYGVLKADEGISFRGLFIIDDKGILRQITVNDLPVGRSVDETLRLVQAFQFTDKHGEVCPAGWKPGSDTIKPDVQKSKEYFSKQK",stoichiometry N,[2],2
"PRX2-T82E (enzyme, human, UniProt P32119 1-198, looked up, peroxiredoxin 2 (PRX2), human, with T82E in the dimer-dimer interface; The methods call the N-terminal His-tag non-cleavable; also called engineered dimer of PRX2; dimeric version of PRX2) MASGNARIGKPAPDFKATAVVDGAFKEVKLSDYKGKYVVLFFYPLDFTFVCPTEIIAFSNRAEDFRKLGCEVLGVSVDSQFEHLAWINTPRKEGGLGPLNIPLLADVTRRLSEDYGVLKTDEGIAYRGLFIIDGKGVLRQITVNDLPVGRSVDEALRLVQAFQYTDEHGEVCPAGWKPGSDTIKPNVDDSKEYFSKHN",stoichiometry N,[2],2
"Wild-type human PRX2 (enzyme, UniProt P32119 1-198, looked up, peroxiredoxin 2 (PRX2), human, wild type, untagged, no extra residues; Tested reduced (DTT) and oxidised to the disulfide (H2O2); also called peroxiredoxin 2; WT PRX2) MASGNARIGKPAPDFKATAVVDGAFKEVKLSDYKGKYVVLFFYPLDFTFVCPTEIIAFSNRAEDFRKLGCEVLGVSVDSQFTHLAWINTPRKEGGLGPLNIPLLADVTRRLSEDYGVLKTDEGIAYRGLFIIDGKGVLRQITVNDLPVGRSVDEALRLVQAFQYTDEHGEVCPAGWKPGSDTIKPNVDDSKEYFSKHN",stoichiometry N,[3],2
same,stoichiometry N,[4],10
"Untagged wild-type PRX3 (residues 62–256) (enzyme, human, UniProt P30048 62-256, looked up, peroxiredoxin 3 (PRX3), human, mitochondrial, residues 62–256, wild type, untagged; Stored oxidised to the disulfide (1.5 equivalents H2O2); tested reduced, partially oxidised and oxidised; also called peroxiredoxin 3; mitochondrial peroxiredoxin 3; not shown: Intein, N-terminal, cleaved) APAVTQHAPYFKGTAVVNGEFKDLSLDDFKGKYLVLFFYPLDFTFVCPTEIVAFSDKANEFHDVNCEVVAVSVDSHFSHLAWINTPRKNGGLGHMNIALLSDLTKQISRDYGVLLEGSGLALRGLFIIDPNGVIKHLSVNDLPVGRSVEETLRLVKAFQYVETHGEVCPANWTPDSPTIKPSPAASKEYFQKVNQ",stoichiometry N,[5],12
same,stoichiometry N,[6],2
"PRX3-S139E/A142E (enzyme, human, UniProt P30048 62-256, looked up, peroxiredoxin 3 (PRX3), human, with S139E and A142E in the dimer-dimer interface; The wild-type construct is residues 62–256; The methods call the N-terminal His-tag non-cleavable; also called engineered dimer of PRX3; PRX3 EE) APAVTQHAPYFKGTAVVNGEFKDLSLDDFKGKYLVLFFYPLDFTFVCPTEIVAFSDKANEFHDVNCEVVAVSVDSHFEHLEWINTPRKNGGLGHMNIALLSDLTKQISRDYGVLLEGSGLALRGLFIIDPNGVIKHLSVNDLPVGRSVEETLRLVKAFQYVETHGEVCPANWTPDSPTIKPSPAASKEYFQKVNQ",stoichiometry N,[2],2
